In PMC7193404, “FHF1 is a bona fide fibroblast growth factor that activates cellular signaling in FGFR-dependent manner” (Cell Communication and Signaling : CCS, 2020):

Biological target: T1, extracellular region of FGFR1 fused to the Fc fragment (UniProt P11362 22-376)
T1 construct: extracellular region of FGFR1; also called FGFR1-Fc; source: produced in mammalian cells; as described previously [27-29]
T1 sequence (looked up): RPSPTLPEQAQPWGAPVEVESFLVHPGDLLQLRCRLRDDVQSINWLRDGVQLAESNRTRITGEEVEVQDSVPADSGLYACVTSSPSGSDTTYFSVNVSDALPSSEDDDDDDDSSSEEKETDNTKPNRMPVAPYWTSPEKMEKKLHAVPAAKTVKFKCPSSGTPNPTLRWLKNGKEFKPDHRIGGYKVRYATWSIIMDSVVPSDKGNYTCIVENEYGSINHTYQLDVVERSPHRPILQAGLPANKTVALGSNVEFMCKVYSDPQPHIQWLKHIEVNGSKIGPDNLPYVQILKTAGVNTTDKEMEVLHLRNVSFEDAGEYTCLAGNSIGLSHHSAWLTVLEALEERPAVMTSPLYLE
Test: SPR; Biacore 3000, 25 °C; FGFR1-Fc amine-coupled at low density (about 1000 RU) on CM4; FHF1 0.1-3.2 uM at 30 ul/min; PBS, 0.05% Tween 20, 0.2% BSA, 0.02% NaN3, pH 7.4; KD from fitted saturation binding curve (equilibrium responses); 1:1 model did not fit
Settings: both partners purified

Kd: 612 nM
B1: fibroblast growth factor homologous factor 1, short isoform (FHF1b) (ligand, human, UniProt P61328-2 1-181, looked up)
chain: MESKEPQLKGIVTRLFSQQGYFLQMHPDGTIDGTKDENSDYTLFNLIPVGLRVVAIQGVKASLYVAMNGEGYLYSSDVFTPECKFKESVFENYYVIYSSTLYRQQESGRAWFLGLNKEGQIMKGNRVKKTKPSSHFVPKPIEVCMYREPSLHEIGEKQGRSRKSSGTPTMNGGKVVNQDST
notes: short isoform (FHF1b) of human FHF1 (FGF12); construct in pDEST17; Construct from F. Nakayama; also called FGF12; source: E. coli BL21 CodonPlus (DE3) RIL, purified (His-Trap, desalting column)
